Data taken from the supplement of paper PMC7877785.
± gives the uncertainty stated by the source.

Assay: self-splicing fitness, log relative to wild type (ln ratio); higher = more splicing; Tetrahymena group I intron in knt gene, E. coli kanamycin selection, DiMSum; sequences stand for … in CUCUCU…GGAGGGAAAAGUUAUCAGGCAUGCACCUGGUAGCUAGUCUUUAAACCAAUAGAUUGCAUCGGUUUAAAAGGCAAGACCGUCAAAUUGCGGGAAAGGGGUCAACAGCCGUUCAGUACCAAGUCUCAGGGGAAACUUUGAGAUGGCCUUGCAAAGGGUAUGGUAAUAAGCUGACGGACAUGGUCCUAACCACGCAGCCAAGUCCUAAGUCAACAGAUCUUCUGUUGAUAUGGAUGCAGUUCACAGACUAAAUGUCGGUCGGGGAAGAUGUAUUCUUCUCAUAAGAUAUAGUCGGACCUCUCCUUAAUGGGAGCUAGCGGAUGAAGUGAUGCAACACUGGAGCCGCUGGGAACUAAUUUGUAUGCGAAAGUAUAUUGAUUAGUUUUGGAGUACUCGUGGUCG
How it was run: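 Six replicate transformations of E. coli BL21(DE3) with a pET-22b(+) library were grown overnight at 37°C or 30°C. The library randomised all eight P1ex-region intron nucleotides, the intron lying in the knt kanamycin-resistance gene, and plates were LB agar with or without 25 μg/mL kanamycin plus 100 μg/mL carbenicillin, 50 μM IPTG and 0.2% rhamnose. Pooled colonies were amplicon-sequenced on an Illumina HiSeq 2500, and fitness is the DiMSum error-weighted combination of wild-type-normalised replicate fold changes, kanamycin versus none.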

Row | Sequence | self-splicing fitness (ln) (30 °C) | self-splicing fitness (ln) (37 °C)
1 | GCUGAGCAAUAUUACGUUAA | -3.04 ± 0.34 | -2.78 ± 0.32
2 | GCUGAGCAAUAUUACGUUCA | -3.45 ± 0.28 | -1.81 ± 0.2
3 | GCUUAGCAAUAUUACGACCC | -0.525 ± 0.22 | -0.569 ± 0.38
4 | GCUUAGCAAUAUUACGACGA | -0.927 ± 0.16 | -0.516 ± 0.13
5 | GCUUAGCAAUAUUACGACUC | -0.244 ± 0.15 | 0.619 ± 0.18
6 | GCUUAGCAAUAUUACGAGAA | -1.2 ± 0.27 | -0.264 ± 0.22
7 | GCUUAGCAAUAUUACGAGAC | -2.64 ± 0.22 | -1.54 ± 0.18
8 | GCUUAGCAAUAUUACGAUCA | -1.1 ± 0.14 | -0.788 ± 0.16
9 | GCUUAGCAAUAUUACGAUUU | -0.0141 ± 0.091 | -0.234 ± 0.12
10 | GCUUAGCAAUAUUACGCGGC | -2.35 ± 0.29 | -2.19 ± 0.37
11 | GCUUAGCAAUAUUACGCUAA | -2.91 ± 0.21 | -3.01 ± 0.26
12 | GCUUAGCAAUAUUACGCUAC | – | -3.24 ± 0.28
13 | GCUUAGCAAUAUUACGCUAU | -2.31 ± 0.16 | -1.38 ± 0.16
14 | GCUUAGCAAUAUUACGCUUG | -2.53 ± 0.27 | -1.74 ± 0.36
15 | GCUUAGCAAUAUUACGCUUU | -1.23 ± 0.064 | -0.413 ± 0.084
16 | GCUUAGCAAUAUUACGGAAU | -1.15 ± 0.062 | 0.0941 ± 0.077
17 | GCUUAGCAAUAUUACGGACG | -1.15 ± 0.13 | 0.122 ± 0.18
18 | GCUUAGCAAUAUUACGGCUU | -0.91 ± 0.089 | -0.586 ± 0.11
19 | GCUUAGCAAUAUUACGGGAC | -1.78 ± 0.18 | -1.19 ± 0.2
20 | GCUUAGCAAUAUUACGUACA | -1.38 ± 0.13 | -0.577 ± 0.14
21 | GCUUAGCAAUAUUACGUCCU | -1.01 ± 0.12 | -0.274 ± 0.15
22 | GCUUAGCAAUAUUACGUCGC | -1.72 ± 0.19 | -0.764 ± 0.28
23 | GCUUAGCAAUAUUACGUGAU | -0.4 ± 0.065 | -0.482 ± 0.068
24 | GGAAAGCAAUAUUACGAACA | -1.34 ± 0.15 | -0.362 ± 0.15
25 | GGAAAGCAAUAUUACGAACG | -0.51 ± 0.1 | -0.441 ± 0.12

Row | Sequence | self-splicing fitness (ln) (30 °C) | self-splicing fitness (ln) (37 °C)
26 | GGAAAGCAAUAUUACGACCG | -0.761 ± 0.12 | -0.184 ± 0.17
27 | GGAAAGCAAUAUUACGAGAC | -3.69 ± 0.17 | -1.96 ± 0.11
28 | GGAAAGCAAUAUUACGAGUA | -2.38 ± 0.22 | -0.9 ± 0.19
29 | GGAAAGCAAUAUUACGAUUU | -0.238 ± 0.081 | 0.189 ± 0.1
30 | GGAAAGCAAUAUUACGCAAU | -2.27 ± 0.45 | -0.77 ± 0.32
31 | GGAAAGCAAUAUUACGCAUC | -2.7 ± 0.17 | -2.49 ± 0.31
32 | GGAAAGCAAUAUUACGCAUG | -1.24 ± 0.084 | -0.813 ± 0.11
33 | GGAAAGCAAUAUUACGCCCU | -1.16 ± 0.21 | -1.25 ± 0.21
34 | GGAAAGCAAUAUUACGCCGG | – | -2.24 ± 0.37
35 | GGAAAGCAAUAUUACGCGAC | -2.95 ± 0.24 | -1.73 ± 0.25
36 | GGAAAGCAAUAUUACGCUUC | -2.84 ± 0.3 | –
37 | GGAAAGCAAUAUUACGGAAC | -3.58 ± 0.43 | –
38 | GGAAAGCAAUAUUACGGGAU | -2.64 ± 0.17 | -1.1 ± 0.14
39 | GGAAAGCAAUAUUACGGUAC | -0.689 ± 0.13 | -1.36 ± 0.19
40 | GGAAAGCAAUAUUACGUAAG | -1.87 ± 0.13 | -1.18 ± 0.15
41 | GGAAAGCAAUAUUACGUAGU | -2.97 ± 0.11 | -1.23 ± 0.088
42 | GGAAAGCAAUAUUACGUCAA | -1.7 ± 0.19 | -0.985 ± 0.18
43 | GGAAAGCAAUAUUACGUCCG | -0.651 ± 0.23 | -0.324 ± 0.21
44 | GGAAAGCAAUAUUACGUUAA | -3.35 ± 0.16 | -1.84 ± 0.15
45 | GGAAAGCAAUAUUACGUUAC | -2.63 ± 0.16 | -0.204 ± 0.11
46 | GGAAAGCAAUAUUACGUUAU | -2.24 ± 0.09 | -1.16 ± 0.12
47 | GGACAGCAAUAUUACGACAC | -0.596 ± 0.1 | 0.167 ± 0.13
48 | GGACAGCAAUAUUACGAGAC | -2.05 ± 0.33 | -1.1 ± 0.16
49 | GGACAGCAAUAUUACGCCAU | -1.98 ± 0.26 | -2.03 ± 0.46
50 | GGACAGCAAUAUUACGCGAC | -2.27 ± 0.28 | -1.09 ± 0.24

Row | Sequence | self-splicing fitness (ln) (30 °C) | self-splicing fitness (ln) (37 °C)
51 | GGACAGCAAUAUUACGGAAG | -2.62 ± 0.13 | -1.36 ± 0.14
52 | GGACAGCAAUAUUACGGAGC | -0.749 ± 0.089 | -0.621 ± 0.09
53 | GGACAGCAAUAUUACGGUGC | -1.58 ± 0.094 | -0.8 ± 0.11
54 | GGACAGCAAUAUUACGUCCC | -3.31 ± 0.4 | –
55 | GGACAGCAAUAUUACGUCGA | 0.00434 ± 0.082 | 0.755 ± 0.12
56 | GGACAGCAAUAUUACGUCUU | -3.29 ± 0.091 | -1.9 ± 0.099
57 | GGACAGCAAUAUUACGUUCC | -2.58 ± 0.3 | -2.84 ± 0.45
58 | GGAGAGCAAUAUUACGAACC | -2.16 ± 0.43 | –
59 | GGAGAGCAAUAUUACGACAC | -0.961 ± 0.28 | 0.238 ± 0.22
60 | GGAGAGCAAUAUUACGCAUG | – | -0.0425 ± 0.28
61 | GGAGAGCAAUAUUACGCCUA | -2.28 ± 0.32 | -2.48 ± 0.34
62 | GGAGAGCAAUAUUACGCGAC | -2.83 ± 0.21 | -2.22 ± 0.34
63 | GGAGAGCAAUAUUACGCUGA | -2.98 ± 0.19 | -1.36 ± 0.24
64 | GGAGAGCAAUAUUACGGCUG | -2.1 ± 0.21 | -0.692 ± 0.21
65 | GGAGAGCAAUAUUACGUCAU | -2.38 ± 0.31 | -2.61 ± 0.33
66 | GGAGAGCAAUAUUACGUGAU | -3.33 ± 0.24 | -1.75 ± 0.31
67 | GGAGAGCAAUAUUACGUGCA | -1.92 ± 0.29 | -2.03 ± 0.32
68 | GGAGAGCAAUAUUACGUGGU | -3.28 ± 0.16 | -3.01 ± 0.26
69 | GGAGAGCAAUAUUACGUGUA | -2.77 ± 0.29 | -3.17 ± 0.33
70 | GGAGAGCAAUAUUACGUUUA | -3.83 ± 0.33 | -2.03 ± 0.17
71 | GGAUAGCAAUAUUACGAAAU | -1.09 ± 0.12 | -0.476 ± 0.12
72 | GGAUAGCAAUAUUACGACAU | -0.425 ± 0.014 | -0.0181 ± 0.034
73 | GGAUAGCAAUAUUACGACUU | 0.215 ± 0.18 | 0.847 ± 0.17
74 | GGAUAGCAAUAUUACGAUAU | -0.868 ± 0.14 | -0.583 ± 0.19
75 | GGAUAGCAAUAUUACGAUGG | -1.27 ± 0.38 | –

Row | Sequence | self-splicing fitness (ln) (30 °C) | self-splicing fitness (ln) (37 °C)
76 | GGAUAGCAAUAUUACGAUUC | -2.52 ± 0.15 | -0.731 ± 0.16
77 | GGAUAGCAAUAUUACGCCGU | -1.74 ± 0.25 | -0.441 ± 0.2
78 | GGAUAGCAAUAUUACGCGGA | -2.65 ± 0.43 | -1.57 ± 0.31
79 | GGAUAGCAAUAUUACGCGUG | -1.49 ± 0.087 | -0.118 ± 0.08
80 | GGAUAGCAAUAUUACGCUCG | -0.451 ± 0.24 | -0.208 ± 0.35
81 | GGAUAGCAAUAUUACGCUGA | -1.13 ± 0.13 | -1.19 ± 0.14
82 | GGAUAGCAAUAUUACGGAAC | -1.9 ± 0.22 | -2.03 ± 0.29
83 | GGAUAGCAAUAUUACGGACA | -1.68 ± 0.16 | -0.273 ± 0.16
84 | GGAUAGCAAUAUUACGGAGC | -3.05 ± 0.26 | -2.51 ± 0.25
85 | GGAUAGCAAUAUUACGGCCG | -0.857 ± 0.18 | 0.103 ± 0.2
86 | GGAUAGCAAUAUUACGGGAG | – | -2.52 ± 0.21
87 | GGAUAGCAAUAUUACGGGCU | -2.29 ± 0.14 | -0.442 ± 0.12
88 | GGAUAGCAAUAUUACGGUGC | -1.85 ± 0.48 | -2.5 ± 0.49
89 | GGAUAGCAAUAUUACGUUAA | -2.35 ± 0.16 | -1.9 ± 0.16
90 | GGCAAGCAAUAUUACGAAAA | -0.934 ± 0.1 | -1.41 ± 0.15
91 | GGCAAGCAAUAUUACGAACA | -2.07 ± 0.24 | -0.92 ± 0.18
92 | GGCAAGCAAUAUUACGAAGC | -1.69 ± 0.27 | -0.628 ± 0.47
93 | GGCAAGCAAUAUUACGAAGU | -1.94 ± 0.093 | -1.89 ± 0.12
94 | GGCAAGCAAUAUUACGAAUG | -2.14 ± 0.15 | -1.45 ± 0.16
95 | GGCAAGCAAUAUUACGACAC | -0.649 ± 0.15 | 0.129 ± 0.28
96 | GGCAAGCAAUAUUACGACGU | -0.0263 ± 0.086 | 0.872 ± 0.12
97 | GGCAAGCAAUAUUACGAUAA | -1.23 ± 0.11 | 0.298 ± 0.13
98 | GGCAAGCAAUAUUACGAUAC | -0.974 ± 0.076 | -0.363 ± 0.087
